Test results reported in publication PMC4705688.

Target: His-Cmr (Mycobacterium tuberculosis H37Rv, UniProt P9WMH5 1-244)
Test: EMSA

His-Cmr, sequence (P9WMH5 whole entry): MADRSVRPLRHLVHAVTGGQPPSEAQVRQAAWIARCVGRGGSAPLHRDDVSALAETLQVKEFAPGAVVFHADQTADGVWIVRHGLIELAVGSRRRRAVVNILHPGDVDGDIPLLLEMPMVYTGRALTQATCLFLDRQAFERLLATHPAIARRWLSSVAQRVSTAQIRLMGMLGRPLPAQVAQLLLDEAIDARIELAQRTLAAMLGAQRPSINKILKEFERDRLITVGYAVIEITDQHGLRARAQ

B1: 1C1 40 bp overlap (dsDNA)
DNA 1: GCGTGGTTCAGCTTGTCACCGGTGACACTGTGTTGGCTTC
DNA 2: GAAGCCAACACAGTGTCACCGGTGACAAGCTGAACCACGC
B1: binds.
